Test results from the RNAGym collection of RNA variant scans (doi:10.1021/acssynbio.7b00057).

B1: Pistol ribozyme (parent)
chain: GGGUCGUUGUUCCAUAAUCGCGUGGAUAUGGCACGCAAGUUUCUACCGGGCACCGUAAAUGUCCGACUGGAGCCGUUCGGGCGGCUAUAAACAGACCUCAGGCCCGAAGCGUGGCGGCACCUGCCGCCGGUGGUAAAAAAGAUCGGAAGAGCACACGUCU

Variants of: B1
Assay: aptazyme ON/OFF ratio, guanine; higher = stronger switching; co-transcriptional cleavage with and without guanine

Variant	aptazyme ON/OFF ratio
U8A U10A	1.07
U8A U10C	4.03
U8A U10G	1.62
U8A U10A U11A C13G	1.16
U8A U10A U11A C13A	1.12
U8A U10A U11A C13U	1.06
U8A U11A	1.14
U8A U11G	1.25
U8A U11C	1.12
U8A U10A U11G C12U C13A	1.2
U8A U10A U11G C12U C13U	1.4
U8A U10A U11G C12U C13G	1.45
U8A U10C C12U C13G	1.11
U8A U10C C12U C13U	1.35
U8A U10C C12U C13A	1.22
U8A U10A U11C C12G	1.08
U8A U10A U11C C12U	1.01
U8A U10A U11C C12A	1.09
U8A U10G U11A C12G	1.1
U8A U10G U11A C12A	1.06
U8A U10G U11A C12U	1.12
U8A U11A C12U	1.19
U8A U11A C12A	1.07
U8A U11A C12G	1.2

Variant	aptazyme ON/OFF ratio
U8A U10G U11C C12A C13G	1.14
U8A U10G U11C C12A C13U	1.21
U8A U10G U11C C12A C13A	1.26
U8A G9U U10G U11G C12A	1.07
U8A G9U U10G U11G C12G	1.27
U8A G9U U10G U11G C12U	1.28
U8A G9U U10G U11G C12U C13A	1.32
U8A G9U U10G U11G C12U C13G	1.21
U8A G9U U10G U11G C12U C13U	1.35
U8A G9U U11C C12U C13U	1.16
U8A G9U U11C C12U C13G	1.06
U8A G9U U11C C12U C13A	1.2
U8A G9U U10G U11G C12A C13G	1.14
U8A G9U U10G U11G C12A C13U	1.26
U8A G9U U10G U11G C12A C13A	1.16
U8A U10A U11C C12A C13G	1.06
U8A U10A U11C C12A C13U	1.19
U8A U10A U11C C12A C13A	1.08
U8A G9U U10G C13G	1.13
U8A G9U U10G C13A	1.18
U8A G9U U10G C13U	1.55
U8A G9U U11C C12G C13G	1.16
U8A G9U U11C C12G C13A	1.14
U8A G9U U11C C12G C13U	1.16

Variant	aptazyme ON/OFF ratio
U8A G9U U10G U11G C13U	1.03
U8A G9U U10G U11G C13G	1.06
U8A G9U U10G U11G C13A	1.08
U8A U10G U11A C12A C13A	1.3
U8A U10G U11A C12A C13G	1.15
U8A U10G U11A C12A C13U	1.11
U8A U11C C12G	1.51
U8A U11C C12U	1.54
U8A U11C C12A	1.29
U8A U10C C12A C13A	1.23
U8A U10C C12A C13G	1.11
U8A U10C C12A C13U	1.26
U8A G9U U11C C13U	1.03
U8A G9U U11C C13G	1.02
U8A G9U U11C C13A	1.04
U8A U11A C12U C13U	1.18
U8A U11A C12U C13G	1.21
U8A U11A C12U C13A	1.23
U8A G9U U10G U11A C12U C13A	1.13
U8A G9U U10G U11A C12U C13G	1.16
U8A G9U U10G U11A C12U C13U	1.12
U8A U10A U11A C12G C13U	1.13
U8A U10A U11A C12G C13G	1.18
U8A U10A U11A C12G C13A	1.12

Variant	aptazyme ON/OFF ratio
U8A U10G U11A C12U C13U	1.31
U8A U10G U11A C12U C13A	1.42
U8A U10G U11A C12U C13G	1.35
U8A G9U U10G U11A C12G C13A	1.27
U8A G9U U10G U11A C12G C13G	1.31
U8A G9U U10G U11A C12G C13U	1.28
U8A U10C U11A	1.15
U8A U10C U11C	1.01
U8A U10C U11G	1.18
U8A U10C U11G C12G C13U	1.14
U8A U10C U11G C12G C13A	1.29
U8A U10C U11G C12G C13G	1.26
U8A U10G C12G C13A	1.37
U8A U10G C12G C13G	1.12
U8A U10G C12G C13U	1.34
U8A G9U U11G C12A	1.07
U8A G9U U11G C12U	1.51
U8A G9U U11G C12G	1.12
U8A U11G C12A	1.09
U8A U11G C12U	1.28
U8A U11G C12G	1.18
U8A U11G C12G C13A	1.17
U8A U11G C12G C13U	1.47
U8A U11G C12G C13G	1.27

Variant	aptazyme ON/OFF ratio
U8A U10C U11C C12G C13G	1.1
U8A U10C U11C C12G C13U	1.11
U8A U10C U11C C12G C13A	1.21
U8A G9U U10G U11G C12G C13A	1.05
U8A G9U U10G U11G C12G C13G	1.32
U8A G9U U10G U11G C12G C13U	1.34
U8A U10A U11G C12A C13U	1.07
U8A U10A U11G C12A C13G	1.3
U8A U10A U11G C12A C13A	1.13
U8A U10A U11G C13G	1.14
U8A U10A U11G C13A	1.18
U8A U10A U11G C13U	1.13
U8A U11A C12A C13G	1.16
U8A U11A C12A C13U	1.25
U8A U11A C12A C13A	1.15
U8A U10G U11C C13U	1.04
U8A U10G U11C C13A	1.06
U8A U10G U11C C13G	1.11
U8A U10G U11G C13A	1.33
U8A U10G U11G C13U	1.3
U8A U10G U11G C13G	1.28
U8A U10C U11A C12A C13A	1.21
U8A U10C U11A C12A C13G	1.1
U8A U10C U11A C12A C13U	1.3

Variant	aptazyme ON/OFF ratio
U8A G9U U10G U11C C12U	1.01
U8A G9U U10G U11C C12A	1.04
U8A G9U U10G U11C C12G	1.07
U8A U10C U11C C12U	1.06
U8A U10C U11C C12G	1.27
U8A U10C U11C C12A	1.08
U8A G9U U11G C12A C13A	1.11
U8A G9U U11G C12A C13U	1.23
U8A G9U U11G C12A C13G	1.41
U8A U10G C12A C13G	1.09
U8A U10G C12A C13U	1.23
U8A U10G C12A C13A	1.23
U8A U10A C12U C13A	1.21
U8A U10A C12U C13U	1.25
U8A U10A C12U C13G	1.13
U8A G9U U10G U11A C13A	1.02
U8A G9U U10G U11A C13U	1.03
U8A G9U U10G U11A C13G	1.03
U8A U10C C13U	1.19
U8A U10C C13A	1.05
U8A U10C C13G	1.05
U8A U10C U11A C12U C13U	1.31
U8A U10C U11A C12U C13A	1.16
U8A U10C U11A C12U C13G	1.23

Variant	aptazyme ON/OFF ratio
U8A U11G C12U C13A	1.14
U8A G9U U10G U11C C12U C13U	1.08
U8A G9U U10G U11C C12U C13A	1.04
U8A G9U U10G U11C C12U C13G	1.05
U8A U10A C12A C13G	1.08
U8A U10A C12A C13U	1.18
U8A U10A C12A C13A	1.19
U8A U10C U11C C12A C13U	1.07
U8A U10C U11C C12A C13A	1.18
U8A U10C U11C C12A C13G	1.14
U8A G9U U11A C12G C13U	1.3
U8A G9U U11A C12G C13G	1.3
U8A G9U U11A C12G C13A	1.32
U8A G9U U10G U11C C13G	1.04
U8A G9U U10G U11C C13U	1.02
U8A G9U U10G U11C C13A	1.03
U8A U10G U11G C12U C13A	1.15
U8A U10G U11G C12U C13G	1.28
U8A U10G U11G C12U C13U	1.43
U8A G9U U10G U11C	1.06
U8A G9U U10G U11A	1.07
U8A G9U U10G U11G	1.09
U8A U10A U11G C12G C13U	1.27
